Values quoted from earlier work as cited in article PMC5852440.

Molecular target: EphB4 (Homo sapiens) (UniProt P54760)
Chain of UniProt P54760 (P54760 16-539): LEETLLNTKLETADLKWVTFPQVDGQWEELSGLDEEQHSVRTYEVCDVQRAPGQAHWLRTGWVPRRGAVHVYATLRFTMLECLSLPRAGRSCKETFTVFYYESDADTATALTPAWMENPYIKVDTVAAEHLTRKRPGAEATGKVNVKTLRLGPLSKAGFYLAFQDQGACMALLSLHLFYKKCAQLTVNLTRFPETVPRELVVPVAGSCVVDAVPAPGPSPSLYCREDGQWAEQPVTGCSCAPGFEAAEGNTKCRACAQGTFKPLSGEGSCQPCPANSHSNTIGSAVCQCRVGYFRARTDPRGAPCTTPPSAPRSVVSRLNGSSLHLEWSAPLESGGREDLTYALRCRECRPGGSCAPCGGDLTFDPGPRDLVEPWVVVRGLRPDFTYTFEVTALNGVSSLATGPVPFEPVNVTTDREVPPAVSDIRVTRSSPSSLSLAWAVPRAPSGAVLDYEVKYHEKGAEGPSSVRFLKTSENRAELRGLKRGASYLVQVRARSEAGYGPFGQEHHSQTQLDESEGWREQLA

Epo (from UniProt P01588)
Kd: 880 nM
